Test results from article PMC5218414 (PLoS ONE, 2017).
Several values for one entry are separate records, joined by “and”; a condition that tells them apart may be missing. Equal entries are not always repeated.

B1: matuzumab Fab fragment (Fab, V domains shown)
VH: QVQLVQSGAEVKKPGASVKVSCKASGYTFTSHWMHWVRQAPGQGLEWIGEFNPSNGRTNYNEKFKSKATMTVDTSTNTAYMELSSLRSEDTAVYYCASRDYDYAGRYFDYWGQGTLVTVSS
VL: DIQMTQSPSSLSASVGDRVTITCSASSSVTYMYWYQQKPGKAPKLLIYDTSNLASGVPSRFSGSGSGTDYTFTISSLQPEDIATYYCQQWSSHIFTFGQGTKVEIK
notes: Fab heavy chain of matuzumab; light chain of matuzumab; source: Expi293 transient expression, co-transfection of heavy and light chain vectors, purified (IMAC, Ni Sepharose Excel)
B2: necitumumab (IMC-11F8) Fab fragment (Fab, V domains shown)
VH: QVQLQESGPGLVKPSQTLSLTCTVSGGSISSGDYYWSWIRQPPGKGLEWIGYIYYSGSTDYNPSLKSRVTMSVDTSKNQFSLKVNSVTAADTAVYYCARVSIFGVGTFDYWGQGTLVTVSS
VL: EIVMTQSPATLSLSPGERATLSCRASQSVSSYLAWYQQKPGQAPRLLIYDASNRATGIPARFSGSGSGTDFTLTISSLEPEDFAVYYCHQYGSTPLTFGGGTKAEIK
notes: Fab heavy chain of necitumumab; light chain of necitumumab; source: Expi293 transient expression, co-transfection of heavy and light chain vectors, purified (IMAC, Ni Sepharose Excel)
B3: duligotuzumab (DL11) Fab fragment (Fab, V domains shown)
VH: EVQLVESGGGLVQPGGSLRLSCAASGFTLSGDWIHWVRQAPGKGLEWLGEISAAGGYTDYADSVKGRFTISADTSKNTAYLQMNSLRAEDTAVYYCARESRVSFEAAMDYWGQGTLVTVSS
VL: DIQMTQSPSSLSASVGDRVTITCRASQDLATDVAWYQQKPGKAPKLLIYSASFLYSGVPSRFSGSGSGTDFTLTISSLQPEDFATYYCQQSEPEPYTFGQGTKVEIK
notes: Fab heavy chain of duligotuzumab; light chain of duligotuzumab; source: Expi293 transient expression, co-transfection of heavy and light chain vectors, purified (IMAC, Ni Sepharose Excel)

Target: T1, human epidermal growth factor receptor (EGFR) (Homo sapiens, UniProt P00533)
T1 construct: human epidermal growth factor receptor, used as a 'monovalent antigen' in solution
Assay: SPR; ProteOn XPR36 one-shot kinetics; antibodies amine-coupled onto GLC chips, EGFR injected as monovalent analyte for 3 min (5fold and 3fold series, top 56 nM; over matuzumab 3fold series, top 278 nM); 25°C, PBS + 0.01% Tween-20; global Langmuir model with mass transport; apparent
Conditions: both partners purified

| Binder | Kd | koff | kon |
| --- | --- | --- | --- |
| B1 | 93.1 nM and 92.6 nM | 0.034 s⁻¹ and 0.031 s⁻¹ | 360000 M⁻¹ s⁻¹ and 340000 M⁻¹ s⁻¹ |
| B2 | 1.5 nM and 1.6 nM | 0.0036 s⁻¹ and 0.0059 s⁻¹ | 3.9e+06 M⁻¹ s⁻¹ and 2.2e+06 M⁻¹ s⁻¹ |
| B3 | 1.9 nM and 1.7 nM | 0.0035 s⁻¹ and 0.003 s⁻¹ | 1.9e+06 M⁻¹ s⁻¹ and 1.8e+06 M⁻¹ s⁻¹ |
